From article doi:10.1101/2025.05.24.655970

Target: Dob3, ferritin-like diiron oxidase/oxygenase (FDO) of the dob gene cluster (Nocardia ninae)
Assay: SEC; size-exclusion chromatography of purified Dob3; column and buffer not told in the text shown (Supplementary Figure 19)

Substance: Dob3, ferritin-like diiron oxidase/oxygenase (FDO) of the dob gene cluster (enzyme)
- stoichiometry N: 2
